Sequences and labels used below:
B1: target 2 MT 5'PFS GUG 3'PFS AUU (mixed)
RNA 1: CACCCGUGCAAAAUUGCAGGGGUCUAAAACCUUCUCCAAAUUGUUUCAUCCU
RNA 2: GGGAAUGGAUCCACAUCUACGAAUUCGUGAGGAUGAAACAAUUUGGAGAAGAUUAGAUCGGAAGAGCACACGU
B2: target 2 MT 5'PFS UAA 3'PFS AAC (mixed)
RNA 1: B1 RNA 1
RNA 2: B1 RNA 2 with G27U, U28A, G29A, U53A, U54C
B3: target 2 MT 5'PFS CUG 3'PFS AGC (mixed)
RNA 1: B1 RNA 1
RNA 2: B1 RNA 2 with G27C, U53G, U54C
B4: target 2 MT 5'PFS GAG 3'PFS CUU (mixed)
RNA 1: B1 RNA 1
RNA 2: B1 RNA 2 with U28A, A52C
B5: target 2 MT 5'PFS CGA 3'PFS ACU (mixed)
RNA 1: B1 RNA 1
RNA 2: B1 RNA 2 with G27C, U28G, G29A, U53C
B6: target 2 MT 5'PFS UUU 3'PFS CUG (mixed)
RNA 1: B1 RNA 1
RNA 2: B1 RNA 2 with G27U, G29U, A52C, U54G
B7: target 2 MT 5'PFS GCC 3'PFS AAC (mixed)
RNA 1: B1 RNA 1
RNA 2: B1 RNA 2 with U28C, G29C, U53A, U54C
B8: target 2 MT 5'PFS CUG 3'PFS AGU (mixed)
RNA 1: B1 RNA 1
RNA 2: B1 RNA 2 with G27C, U53G
B9: target 2 MT 5'PFS UUU 3'PFS CUA (mixed)
RNA 1: B1 RNA 1
RNA 2: B1 RNA 2 with G27U, G29U, A52C, U54A
B10: target 2 MT 5'PFS GAU 3'PFS UAC (mixed)
RNA 1: B1 RNA 1
RNA 2: B1 RNA 2 with U28A, G29U, A52U, U53A, U54C
B11: target 2 MT 5'PFS UUU 3'PFS CUC (mixed)
RNA 1: B1 RNA 1
RNA 2: B1 RNA 2 with G27U, G29U, A52C, U54C
B12: target 2 MT 5'PFS UAA 3'PFS AAA (mixed)
RNA 1: B1 RNA 1
RNA 2: B1 RNA 2 with G27U, U28A, G29A, U53A, U54A
B13: target 2 MT 5'PFS GUC 3'PFS CAA (mixed)
RNA 1: B1 RNA 1
RNA 2: B1 RNA 2 with G29C, A52C, U53A, U54A
B14: target 2 MT 5'PFS GCA 3'PFS CCA (mixed)
RNA 1: B1 RNA 1
RNA 2: B1 RNA 2 with U28C, G29A, A52C, U53C, U54A
B15: target 2 MT 5'PFS GUC 3'PFS CAC (mixed)
RNA 1: B1 RNA 1
RNA 2: B1 RNA 2 with G29C, A52C, U53A, U54C
B16: target 2 MT 5'PFS CGC 3'PFS AGC (mixed)
RNA 1: B1 RNA 1
RNA 2: B1 RNA 2 with G27C, U28G, G29C, U53G, U54C
B17: target 2 MT 5'PFS GUG 3'PFS AUC (mixed)
RNA 1: B1 RNA 1
RNA 2: B1 RNA 2 with U54C
B18: target 2 MT 5'PFS GCU 3'PFS UGC (mixed)
RNA 1: B1 RNA 1
RNA 2: B1 RNA 2 with U28C, G29U, A52U, U53G, U54C
B19: target 2 MT 5'PFS UAA 3'PFS AAU (mixed)
RNA 1: B1 RNA 1
RNA 2: B1 RNA 2 with G27U, U28A, G29A, U53A
B20: target 2 MT 5'PFS GAC 3'PFS UCC (mixed)
RNA 1: B1 RNA 1
RNA 2: B1 RNA 2 with U28A, G29C, A52U, U53C, U54C
B21: target 2 MT 5'PFS CCU 3'PFS CCC (mixed)
RNA 1: B1 RNA 1
RNA 2: B1 RNA 2 with G27C, U28C, G29U, A52C, U53C, U54C
B22: target 2 MT 5'PFS UAA 3'PFS AAG (mixed)
RNA 1: B1 RNA 1
RNA 2: B1 RNA 2 with G27U, U28A, G29A, U53A, U54G
B23: target 2 MT 5'PFS GUG 3'PFS AUG (mixed)
RNA 1: B1 RNA 1
RNA 2: B1 RNA 2 with U54G
B24: target 2 MT 5'PFS GAU 3'PFS UAA (mixed)
RNA 1: B1 RNA 1
RNA 2: B1 RNA 2 with U28A, G29U, A52U, U53A, U54A
B25: target 2 MT 5'PFS GCC 3'PFS AAG (mixed)
RNA 1: B1 RNA 1
RNA 2: B1 RNA 2 with U28C, G29C, U53A, U54G
B26: target 2 MT 5'PFS AUA 3'PFS CCA (mixed)
RNA 1: B1 RNA 1
RNA 2: B1 RNA 2 with G27A, G29A, A52C, U53C, U54A
B27: target 2 MT 5'PFS GAU 3'PFS UAU (mixed)
RNA 1: B1 RNA 1
RNA 2: B1 RNA 2 with U28A, G29U, A52U, U53A
B28: target 2 MT 5'PFS GAU 3'PFS UAG (mixed)
RNA 1: B1 RNA 1
RNA 2: B1 RNA 2 with U28A, G29U, A52U, U53A, U54G
B29: target 2 MT 5'PFS AUA 3'PFS CCG (mixed)
RNA 1: B1 RNA 1
RNA 2: B1 RNA 2 with G27A, G29A, A52C, U53C, U54G
B30: target 2 MT 5'PFS GUG 3'PFS AUA (mixed)
RNA 1: B1 RNA 1
RNA 2: B1 RNA 2 with U54A
B31: target 2 MT 5'PFS CUG 3'PFS AGA (mixed)
RNA 1: B1 RNA 1
RNA 2: B1 RNA 2 with G27C, U53G, U54A
B32: target 2 MT 5'PFS GCC 3'PFS AAA (mixed)
RNA 1: B1 RNA 1
RNA 2: B1 RNA 2 with U28C, G29C, U53A, U54A
B33: target 2 MT 5'PFS CGC 3'PFS AGG (mixed)
RNA 1: B1 RNA 1
RNA 2: B1 RNA 2 with G27C, U28G, G29C, U53G, U54G
B34: target 1 insU 3' of 9,insG 3' of 6 (mixed)
RNA 1: CACCCGUGCAAAAAUGCAGGGGUCUAAAACUGAGCGGAUAACCUCUCUAUGG
RNA 2: GGGAAUGGAUCCACAUCUACGAAUUCGUACCAUAGAGAGGUUAUUCCGGCUCACCGAGAUCGGAAGAGCACACGU
B35: target 1 insA 3' of 10,insG 3' of 6 (mixed)
RNA 1: B34 RNA 1
RNA 2: B34 RNA 2 with U44A
B36: target 1 A14G,C22U (mixed)
RNA 1: B34 RNA 1
RNA 2: GGGAAUGGAUCCACAUCUACGAAUUCGUAUCAUAGAGGGGUUAUCCGCUCACCGAGAUCGGAAGAGCACACGU

Changes are numbered by the printed parent chain. Numbers in names are those of the source.

The target of the series is T1, EsCas13d, nuclease-dead (Eubacterium siraeum, UniProt B0MS50, R295A;H300A;R849A;H854A).
T1 sequence: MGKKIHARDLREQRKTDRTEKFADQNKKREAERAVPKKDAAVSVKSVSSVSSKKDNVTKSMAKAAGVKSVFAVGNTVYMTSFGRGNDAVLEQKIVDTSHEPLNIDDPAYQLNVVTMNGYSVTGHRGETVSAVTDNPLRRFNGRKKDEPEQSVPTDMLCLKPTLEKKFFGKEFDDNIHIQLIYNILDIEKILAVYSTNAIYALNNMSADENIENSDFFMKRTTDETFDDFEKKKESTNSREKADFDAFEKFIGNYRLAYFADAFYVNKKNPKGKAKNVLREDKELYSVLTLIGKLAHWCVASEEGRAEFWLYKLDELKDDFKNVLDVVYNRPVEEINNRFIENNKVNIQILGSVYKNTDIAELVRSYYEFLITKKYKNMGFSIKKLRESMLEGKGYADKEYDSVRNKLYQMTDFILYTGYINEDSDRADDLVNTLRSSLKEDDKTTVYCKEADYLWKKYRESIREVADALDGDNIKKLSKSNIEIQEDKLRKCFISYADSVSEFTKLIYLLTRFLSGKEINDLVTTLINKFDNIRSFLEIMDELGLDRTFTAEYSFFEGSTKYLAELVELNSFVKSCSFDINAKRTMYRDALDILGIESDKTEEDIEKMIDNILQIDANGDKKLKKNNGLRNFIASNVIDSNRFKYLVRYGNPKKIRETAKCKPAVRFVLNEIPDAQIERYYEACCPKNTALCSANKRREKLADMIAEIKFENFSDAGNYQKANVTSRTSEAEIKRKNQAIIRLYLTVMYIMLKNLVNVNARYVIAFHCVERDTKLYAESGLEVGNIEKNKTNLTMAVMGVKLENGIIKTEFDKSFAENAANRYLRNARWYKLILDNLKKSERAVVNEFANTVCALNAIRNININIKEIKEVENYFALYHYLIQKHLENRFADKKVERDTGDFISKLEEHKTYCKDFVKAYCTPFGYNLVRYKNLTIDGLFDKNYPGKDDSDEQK
The experiment in a line: crRNA (strand 1, pre-loaded); Mg2+; 40 mM Tris-HCl pH 7.5, 150 mM NaCl, 6 mM MgCl2, 1 mM DTT, 0.1% Tween-20, 0.2 mg/ml BSA; 25 C; 10 min per concentration, then washed. The conditions noted are these: tags: His6-TwinStrep-SUMO cleaved; N-terminal SNAP kept (SNAP-Surface 488); label: 3' end held by stalled T7 RNA polymerase.
The molecule B1 came in with a Kd of 11.3 ± 0.9 nM.
B2 returned a Kd of 6.6 ± 1 nM.
Then B3, with 2.52 ± 0.2 nM.
In turn, B4 yielded a Kd of 8.9 ± 0.7 nM.
In the case of B5 it was 17 ± 7 nM.
B6 returned a Kd of 7.7 ± 1 nM.
In the case of B7, the Kd came to 17 ± 5 nM.
In the case of B8 it was 3.7 ± 0.6 nM; in that of B9, 16 ± 3.2 nM.
In the case of B10 it was 16 ± 3.4 nM; in that of B11, 8.4 ± 0.9 nM.
In the case of B12 it was 2.9 ± 0.8 nM; in that of B13, 9.8 ± 1.7 nM; in that of B14, approximately 27 nM.
In turn, B15 showed a Kd of 13.4 ± 2.5 nM.
On to B16, for which the Kd came out at 6.1 ± 1.5 nM.
In the case of B17 it was 10.8 ± 0.8 nM; in that of B18, 12.9 ± 2.1 nM.
In the case of B19 it was 4.7 ± 0.6 nM; in that of B20, 50 ± 15 nM; in that of B21, 5.3 ± 2 nM.
In the case of B22 it was 4.5 ± 0.6 nM; in that of B23, 13.8 ± 1.3 nM; in that of B24, 12 ± 4 nM.
As for B25, the Kd was determined as 22 ± 5 nM. This Kd lies about 1.8-fold higher than the previous one.
Then B26, with 15.9 ± 2.5 nM; and B27, with 16 ± 4 nM; and B28, with 13.4 ± 2.7 nM.
In turn, B29 displayed a Kd of 8.5 ± 0.8 nM. This Kd is about 1.6-fold lower than that of the molecule before.
Then B30, with 11.3 ± 1.5 nM; and B31, with 2.16 ± 0.2 nM; and B32, with 11.9 ± 3.4 nM.
B33 returned a dissociation constant Kd of 3.4 ± 0.5 nM.
Molecule B34 came in with a Kd of 12.1 ± 1.4 nM.
With B35, the Kd was 9.9 ± 0.4 nM.
Then B36, with approximately 49 nM.

These data come from publication PMC10786891, “Massively parallel profiling of RNA-targeting CRISPR-Cas13d”.
